# Reference: patent US20190315854A1 (BEIJING VDJBIO, published 2019)
# Residue numbers refer to the chain shown, from its start.
# T1: sIL-6R (soluble IL-6 receptor; SBH Sciences) (human, UniProt P08887 20-365)
# T1 construct: also called human IL-6R
# T1 sequence: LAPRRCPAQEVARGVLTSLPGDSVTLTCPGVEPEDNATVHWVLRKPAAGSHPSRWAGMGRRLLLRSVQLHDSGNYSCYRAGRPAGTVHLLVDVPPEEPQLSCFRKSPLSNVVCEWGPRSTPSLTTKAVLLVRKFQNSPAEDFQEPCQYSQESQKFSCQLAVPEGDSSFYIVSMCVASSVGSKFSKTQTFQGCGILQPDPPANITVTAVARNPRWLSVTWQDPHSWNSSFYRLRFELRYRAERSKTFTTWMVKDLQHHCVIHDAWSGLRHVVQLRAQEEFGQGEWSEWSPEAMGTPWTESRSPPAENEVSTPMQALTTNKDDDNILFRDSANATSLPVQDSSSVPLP
# T2: IL-6 receptor on DS-1 cells (ATCC CRL 11102) (UniProt P08887 20-468, limits assumed)
# T2 sequence (looked up): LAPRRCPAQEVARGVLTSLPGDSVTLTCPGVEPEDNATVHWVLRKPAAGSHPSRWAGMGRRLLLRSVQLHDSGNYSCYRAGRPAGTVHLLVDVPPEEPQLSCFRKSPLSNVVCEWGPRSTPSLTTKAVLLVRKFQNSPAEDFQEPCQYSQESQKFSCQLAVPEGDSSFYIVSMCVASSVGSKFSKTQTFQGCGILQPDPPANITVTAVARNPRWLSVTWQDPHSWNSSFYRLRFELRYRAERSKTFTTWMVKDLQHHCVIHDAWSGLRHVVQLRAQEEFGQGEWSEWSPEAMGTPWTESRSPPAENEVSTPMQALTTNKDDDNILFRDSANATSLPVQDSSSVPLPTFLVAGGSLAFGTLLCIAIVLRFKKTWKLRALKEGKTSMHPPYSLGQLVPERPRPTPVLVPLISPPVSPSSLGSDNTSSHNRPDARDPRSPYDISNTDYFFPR
# B1: Tocilizumab (antibody, human IgG1, kappa, V domains shown)
# VH: QVQLQESGPGLVRPSQTLSLTCTVSGYSITSDHAWSWVRQPPGRGLEWIGYISYSGITTYNPSLKSRVTMLRDTSKNQFSLRLSSVTAADTAVYYCARSLARTTAMDYWGQGSLVTVSS
# VL: DIQMTQSPSSLSASVGDRVTITCRASQDISSYLNWYQQKPGKAPKLLIYYTSRLHSGVPSRFSGSGSGTDFTFTISSLQPEDIATYYCQQGNTLPYTFGQGTKVEIKR
# notes: also called 25; 25(control)
# B2: 202# (antibody, human IgG1, kappa, V domains shown)
# VH: B1 VH with S99V, T103I
# VL: B1 VL with Q89G, T93R
# B3: 206# (antibody, human IgG1, kappa, V domains shown)
# VH: B1 VH with Y51F, I57M, T103I
# VL: B1 VL with Q89G, T93R
# notes: also called Sample # 206
# B4: 251# (antibody, human IgG1, kappa, V domains shown)
# VH: B1 VH with I57M, T58I, T103I
# VL: B1 VL
# notes: also called Sample # 251
# B5: 205# (antibody, human IgG1, kappa, V domains shown)
# VH: B1 VH with Y51F, I57M, S99C
# VL: B1 VL with Q89G, T93R
# B6: 209# (antibody, human IgG1, kappa, V domains shown)
# VH: B1 VH with Y51F, I57M, T103I, M106I, Y108F
# VL: B1 VL
# notes: also called Sample # 209
# B7: 231# (antibody, human IgG1, kappa, V domains shown)
# VH: B1 VH with S99T, T103M, M106I, Y108F
# VL: B1 VL
# notes: also called Sample # 231
# B8: 237# (antibody, human IgG1, kappa, V domains shown)
# VH: B1 VH with I57M, S99C
# VL: B1 VL with Q89G, T93R
# notes: also called Sample # 237
# B9: 204# (antibody, human IgG1, kappa, V domains shown)
# VH: B1 VH with Y51F, I57M, S99C, T103I
# VL: B1 VL with Q89G, T93R
# Biological target: T1, sIL-6R (soluble IL-6 receptor; SBH …)
# Assay: SPR (BIAcore 3000), antibody on chip, sIL-6R analyte, 25 C
# Experimental: (§1) All SPR measurements were performed on a BIAcore 3000 instrument (GE Biosciences, Piscataway, N.J.). BIAcore Software-BIAcore 3000 Control Software V3.2 was used for the operation and control of the BIAcore 3000 instrument. BiaEvaluation Software V4.1 was used for the analysis of SPR data from the BIAcore 3000 instrument and data was plotted using Graph Pad Prism Software Version 5. […] The indicated antibodies were used as the ligand for the construction of the reference channel of the chip. […] Each sample was injected for 3 min at a flow rate of 30 μL/min to allow for binding to chip-bound antibody. Next, binding buffer without analyte was sent over the chip at the same flow rate to allow for dissociation of bound analyte. After 500s, remaining bound analyte was removed by injecting regeneration solution (1M Formic acid). Data was analyzed by using the Kinetics Wizard and the manual fitting programs that are both included with the BiaEvaluation Software V4.1.
Binder,Kd,Relative Affinity,koff,kon
B1,2.8 nM,1 fold vs 25 (Tocilizumab),0.00035 s⁻¹,125000 M⁻¹ s⁻¹
B2,0.0236 nM,119 fold vs 25 (Tocilizumab),3.17e-06 s⁻¹,134000 M⁻¹ s⁻¹
B3,0.000587 nM,4770 fold vs 25 (Tocilizumab),1.35e-07 s⁻¹,230000 M⁻¹ s⁻¹
B4,0.805 nM,3.5 fold vs 25 (Tocilizumab),0.00014 s⁻¹,173000 M⁻¹ s⁻¹

# Biological target: T1, sIL-6R (soluble IL-6 receptor; SBH …)
# Assay: as above
# Remark: another data set of the same source
# Experimental: as §1
Binder,Kd,Relative Affinity,koff,kon
B1,1.34 nM,1 fold vs 25 (Tocilizumab),0.000252 s⁻¹,188000 M⁻¹ s⁻¹

# Biological target: T1, sIL-6R (soluble IL-6 receptor; SBH …)
# Assay: SPR; ratio of KD at pH 6.0 to KD at pH 7.4
# Experimental: as §1
# (§2) SPR measurements at pH 7.4 and pH 6.0 were performed in parallel and KD values calculated according to the protocol as detailed in Example 1. The pH dependence is calculated as the ratio between the KD value at pH 6.0 and the KD value at pH 7.4, which indicates the fold of affinity decrease from the pH7.4 to pH6.0. If the pH dependence of a subject antibody described herein is over 1, it means that the antibody binds to IL-6R in such a pH-dependent manner that its binding to IL-6R at pH7.4 is higher than at pH6.0. If the pH dependence of a subject antibody described herein is lower than 1, it means that the antibody binds to IL-6R in such a pH-dependent manner that its binding to IL-6R at pH6.0 is higher than at pH7.4.
row,Binder,pH dependence (Fold of affinity decrease)
1,B2,0.74 fold
2,B5,4.59 fold
3,B3,28.4 fold
4,B6,65.5 fold
5,B7,95.5 fold
6,B8,2.63 fold

# Biological target: T1, sIL-6R (soluble IL-6 receptor; SBH …)
# Assay: SPR (BIAcore 3000), antibody on chip, sIL-6R analyte, 25 C
# Remark: another data set of the same source
# Experimental: as §1
Binder,Kd,Relative Affinity,koff,kon
B1,2.85 nM,1 fold vs 25 (Tocilizumab),0.000349 s⁻¹,122000 M⁻¹ s⁻¹
B2,0.0288 nM,99 fold vs 25 (Tocilizumab),2.46e-06 s⁻¹,85300 M⁻¹ s⁻¹
B9,0.0143 nM,199 fold vs 25 (Tocilizumab),3.28e-06 s⁻¹,229000 M⁻¹ s⁻¹
B5,0.0122 nM,234 fold vs 25 (Tocilizumab),2.14e-06 s⁻¹,175000 M⁻¹ s⁻¹
B3,0.00075 nM,3800 fold vs 25 (Tocilizumab),1.41e-07 s⁻¹,189000 M⁻¹ s⁻¹

# Biological target: T1, sIL-6R (soluble IL-6 receptor; SBH …)
# Assay: as above
# Remark: another data set of the same source
# Experimental: as §1
Binder,Kd,Relative Affinity,koff,kon
B1,1.71 nM,1 fold vs 25 (Tocilizumab),0.000353 s⁻¹,207000 M⁻¹ s⁻¹

# Biological target: T1, sIL-6R (soluble IL-6 receptor; SBH …)
# Assay: SPR (BIAcore 3000), antibody on chip, sIL-6R analyte, pH 7.4; pH 7.4
# Experimental: as §1
# (§3) SPR measurements at pH 7.4 and pH 6.0 were performed in parallel and KD values calculated according to the protocol as detailed in Example 1. The pH dependence is calculated as the ratio between the KD value at pH 6.0 and the KD value at pH 7.4, which indicates the fold of affinity decrease from the pH7.4 to pH6.0. […]
row,Binder,kon
1,B1,122000 M⁻¹ s⁻¹

# Biological target: T1, sIL-6R (soluble IL-6 receptor; SBH …)
# Assay: SPR (BIAcore 3000), antibody on chip, sIL-6R analyte, 25 C
# Remark: another data set of the same source
# Experimental: as §1
Binder,Kd,Relative Affinity,koff,kon
B1,3.16 nM,1 fold vs 25 (Tocilizumab),0.000341 s⁻¹,108000 M⁻¹ s⁻¹
B6,0.000669 nM,4720 fold vs 25 (Tocilizumab),1.37e-07 s⁻¹,204000 M⁻¹ s⁻¹
B7,0.00112 nM,2820 fold vs 25 (Tocilizumab),1.48e-07 s⁻¹,132000 M⁻¹ s⁻¹
B8,0.0605 nM,52.2 fold vs 25 (Tocilizumab),1.01e-05 s⁻¹,166000 M⁻¹ s⁻¹

# Biological target: T1, sIL-6R (soluble IL-6 receptor; SBH …)
# Assay: SPR (BIAcore 3000), antibody on chip, sIL-6R analyte, pH 6.0
# Experimental: as §1, §2
Binder,Kd,koff,kon
B1,2 nM,0.000564 s⁻¹,283000 M⁻¹ s⁻¹
B2,0.0214 nM,6.1e-06 s⁻¹,284000 M⁻¹ s⁻¹
B5,0.056 nM,2.15e-05 s⁻¹,384000 M⁻¹ s⁻¹
B3,0.0213 nM,8.78e-06 s⁻¹,412000 M⁻¹ s⁻¹

# Biological target: T1, sIL-6R (soluble IL-6 receptor; SBH …)
# Assay: SPR (BIAcore 3000), antibody on chip, sIL-6R analyte, pH 7.4
# Experimental: as §1, §2
Binder,Kd,koff,kon
B1,2.85 nM,0.000349 s⁻¹,
B2,0.0288 nM,2.46e-06 s⁻¹,85300 M⁻¹ s⁻¹
B5,0.0122 nM,2.14e-06 s⁻¹,175000 M⁻¹ s⁻¹
B3,0.00075 nM,1.41e-07 s⁻¹,189000 M⁻¹ s⁻¹

# Biological target: T1, sIL-6R (soluble IL-6 receptor; SBH …)
# Assay: as above
# Remark: another data set of the same source
# Experimental: as §1, §2
Binder,koff,kon,Kd
B1,0.000341 s⁻¹,108000 M⁻¹ s⁻¹,
B6,1.37e-07 s⁻¹,204000 M⁻¹ s⁻¹,0.000669 nM
B7,1.48e-07 s⁻¹,132000 M⁻¹ s⁻¹,0.00112 nM
B8,1.01e-05 s⁻¹,166000 M⁻¹ s⁻¹,0.0605 nM

# Biological target: T1, sIL-6R (soluble IL-6 receptor; SBH …)
# Assay: SPR; ratio of KD at pH 6.0 to KD at pH 7.4; averaged between the two batches
# Experimental: as §1, §3
row,Binder,pH dependence (Fold of affinity decrease)
1,B1,0.48 fold

# Biological target: T1, sIL-6R (soluble IL-6 receptor; SBH …)
# Assay: SPR (BIAcore 3000), antibody on chip, sIL-6R analyte, pH 7.4; pH 7.4
# Remark: another data set of the same source
row,Binder,Kd
1,B1,3.16 nM

# Biological target: T1, sIL-6R (soluble IL-6 receptor; SBH …)
# Assay: SPR (BIAcore 3000), antibody on chip, sIL-6R analyte, pH 6.0
# Remark: another data set of the same source
# Experimental: as §1, §2
Binder,Kd,koff,kon
B1,1.79 nM,0.000566 s⁻¹,316000 M⁻¹ s⁻¹
B6,0.0438 nM,2.99e-05 s⁻¹,683000 M⁻¹ s⁻¹
B7,0.107 nM,3.1e-05 s⁻¹,291000 M⁻¹ s⁻¹
B8,0.159 nM,4.62e-05 s⁻¹,292000 M⁻¹ s⁻¹

# Biological target: T2, IL-6 receptor on DS-1 cells (ATCC CRL …)
# Assay: cell-based or functional assay
row,Binder,"IC50 (µg/ml), inhibition of DS-1 cell proliferation, MTS assay, IL6 2 ng/mL"
1,B1,0.33 µg/mL
2,B2,0.0686 µg/mL
3,B9,0.0362 µg/mL
4,B3,0.0339 µg/mL
